Substrate in this data set: NC(=O)c1cccnc1
Briefly: purified protein. Format: biochemical, Escherichia coli. As to conditions: 20 mM ribose-1-phosphate, 50 mM MES pH 6.0, 37 °C, 30 min, 0.1 mg/ml xapA, NR synthesis direction.

We go through one protein from article PMC3923242, “New function for Escherichia coli xanthosine phophorylase (xapA): genetic and biochemical evidences on its participation in NAD^+ salvage from nicotinamide” (BMC Microbiology, 2014).

B1: xanthosine phosphorylase (xapA; purine nucleoside phosphorylase II, PNP-II) (Escherichia coli K-12) (protein)
chain: MSQVQFSHNPLFCIDIIKTYKPDFTPRVAFILGSGLGALADQIENAVAISYEKLPGFPVSTVHGHAGELVLGHLQGVPVVCMKGRGHFYEGRGMTIMTDAIRTFKLLGCELLFCTNAAGSLRPEVGAGSLVALKDHINTMPGTPMVGLNDDRFGERFFSLANAYDAEYRALLQKVAKEEGFPLTEGVFVSYPGPNFETAAEIRMMQIIGGDVVGMSVVPEVISARHCDLKVVAVSAITNMAEGLSDVKLSHAQTLAAAELSKQNFINLICGFLRKIA
notes: ORF from E. coli genomic DNA in pET28a (EcoRI/HindIII), expressed in E. coli Rosetta (DE3), Ni-NTA purified (His-tag), tag removal not described
The term Km denotes the concentration of substrate that gives half-maximal velocity. Turning to B1, the Km came to 5.81 mM.
